Consider 1 substance from patent US20020081638.

The data set concerns free histones (mixture of H1, H3, H2B, H2A and H4; Boehringer Mannheim).

Take GST-SUV39H1(82-412) H320R: the “in vitro HMTase assay with free histones, activity against the unmutated product” value is given as “the latter mutation (H320R) resulted in an hyperactive enzyme with approximately 20-fold increased activity”.
